Literature values, collected in PMC12703448.

Molecular target: PDE6D (Homo sapiens) (UniProt O43924)
Sequence (O43924 whole entry): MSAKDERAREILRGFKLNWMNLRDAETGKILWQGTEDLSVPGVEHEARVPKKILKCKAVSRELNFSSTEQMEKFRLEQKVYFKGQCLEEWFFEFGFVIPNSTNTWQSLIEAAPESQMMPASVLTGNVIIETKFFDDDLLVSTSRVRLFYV

Chain of INPP5E (Q9NRR6 1-641): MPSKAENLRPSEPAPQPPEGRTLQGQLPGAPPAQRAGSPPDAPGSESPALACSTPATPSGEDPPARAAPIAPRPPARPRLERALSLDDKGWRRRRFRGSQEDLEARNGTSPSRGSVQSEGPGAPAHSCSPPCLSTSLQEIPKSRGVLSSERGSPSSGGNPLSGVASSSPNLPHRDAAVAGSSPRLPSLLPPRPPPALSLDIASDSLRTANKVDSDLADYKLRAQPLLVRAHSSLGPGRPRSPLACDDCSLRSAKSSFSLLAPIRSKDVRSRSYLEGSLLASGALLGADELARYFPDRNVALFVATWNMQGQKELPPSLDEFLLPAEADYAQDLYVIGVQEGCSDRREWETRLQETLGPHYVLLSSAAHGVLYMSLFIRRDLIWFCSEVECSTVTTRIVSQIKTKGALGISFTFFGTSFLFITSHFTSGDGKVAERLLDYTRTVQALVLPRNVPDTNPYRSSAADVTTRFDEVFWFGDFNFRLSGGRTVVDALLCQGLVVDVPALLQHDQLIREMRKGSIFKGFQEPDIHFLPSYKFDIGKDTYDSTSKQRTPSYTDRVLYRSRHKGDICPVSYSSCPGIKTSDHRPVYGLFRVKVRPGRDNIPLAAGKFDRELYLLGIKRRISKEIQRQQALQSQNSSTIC

- Kd: 4 nM
Substance: INPP5E (from UniProt Q9NRR6)
